Data published in PMC12111036.

Key:
[1] = target: Tyrosine kinase receptor B (TrkB) (not stated (human SH-SY5Y or mouse HT22 cells cultured)) (UniProt Q16620); assay: co-IP; control cells without added BDNF; native lysis; IP of 100 μL whole-cell lysate with anti-TrkB or anti-p75 antibody and protein A&G beads at 4 °C; Western blot with anti-BDNF antibody; band intensity in percent of the control WCL band
[2] = target: p75 receptor (not stated (human SH-SY5Y or mouse HT22 cells cultured)) (UniProt P08138); assay: as above
[3] = target: Tyrosine kinase receptor B (TrkB) (not stated (human SH-SY5Y or mouse HT22 cells cultured)) (UniProt Q16620); assay: co-IP; cells incubated 48 h with BDNF 1.0 nM, alone or with Aβ42M/Aβ42O 0.2 μM and/or CA/EGCG 100 μM or IG3/BCP 2.0 μM; native lysis; IP with anti-TrkB or anti-p75 antibody and protein A&G beads at 4 °C; Western blot with anti-BDNF antibody; band intensity in percent of the control WCL band
[4] = target: p75 receptor (not stated (human SH-SY5Y or mouse HT22 cells cultured)) (UniProt P08138); assay: as above
[5] = target: Amyloid-β protein 1–42 oligomers (Aβ42O) (human) (UniProt P05067); assay: ELISA; indirect ELISA; Aβ42 species or HSA (2.0 μM) coated on 96-well plates at 4 °C for 12 h, blocked with 5% nonfat dry milk in TBS; BDNF 20 pg/mL added, 37 °C, 24 h; bound BDNF detected with anti-BDNF antibody; binding rate in percent of the BDNF added; also run with CA/EGCG (50 μM) or IG3/BCP (2.0 μM)
[6] = target: Amyloid-β protein 1–42 fibrils (Aβ42F) (human) (UniProt P05067); assay: as above
[7] = target: Amyloid-β protein 1–42 protofibrils (Aβ42P) (human) (UniProt P05067); assay: as above
[8] = target: Amyloid-β protein 1–42 monomers (Aβ42M) (human) (UniProt P05067); assay: as above

Chain of p75 receptor (not stated (human SH-SY5Y or mouse HT22 cells cultured)) (P08138 29-427): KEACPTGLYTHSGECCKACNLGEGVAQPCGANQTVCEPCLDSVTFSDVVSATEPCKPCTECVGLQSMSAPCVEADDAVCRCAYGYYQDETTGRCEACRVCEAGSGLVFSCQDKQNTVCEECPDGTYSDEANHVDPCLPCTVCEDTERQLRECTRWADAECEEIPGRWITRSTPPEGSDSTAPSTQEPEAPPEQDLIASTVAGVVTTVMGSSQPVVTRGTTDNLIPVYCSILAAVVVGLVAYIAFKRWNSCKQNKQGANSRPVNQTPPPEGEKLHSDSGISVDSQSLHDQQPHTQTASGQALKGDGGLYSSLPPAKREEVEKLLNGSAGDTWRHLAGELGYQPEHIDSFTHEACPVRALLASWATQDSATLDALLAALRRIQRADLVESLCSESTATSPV

| Substance | BDNF on Co-IP beads, percent of control WCL (no BDNF added) [1] | BDNF on Co-IP beads, percent of control WCL (no BDNF added) [2] | BDNF on Co-IP beads, percent of control WCL (BDNF added) [3] | BDNF on Co-IP beads, percent of control WCL (BDNF with Aβ42M and CA/EGCG) [3] | BDNF on Co-IP beads, percent of control WCL (BDNF with Aβ42M and IG3/BCP) [3] | BDNF on Co-IP beads, percent of control WCL (BDNF with Aβ42M) [3] | BDNF on Co-IP beads, percent of control WCL (BDNF with Aβ42O and CA/EGCG) [3] | BDNF on Co-IP beads, percent of control WCL (BDNF with Aβ42O and IG3/BCP) [3] | BDNF on Co-IP beads, percent of control WCL (BDNF with Aβ42O) [3] | BDNF on Co-IP beads, percent of control WCL (BDNF added) [4] | BDNF on Co-IP beads, percent of control WCL (BDNF with Aβ42M and CA/EGCG) [4] | BDNF on Co-IP beads, percent of control WCL (BDNF with Aβ42M and IG3/BCP) [4] | BDNF on Co-IP beads, percent of control WCL (BDNF with Aβ42M) [4] | BDNF on Co-IP beads, percent of control WCL (BDNF with Aβ42O and CA/EGCG) [4] | BDNF on Co-IP beads, percent of control WCL (BDNF with Aβ42O and IG3/BCP) [4] | BDNF on Co-IP beads, percent of control WCL (BDNF with Aβ42O) [4] | binding rate [5] | binding rate [6] | binding rate [7] | binding rate [8] |
| --- | --- | --- | --- | --- | --- | --- | --- | --- | --- | --- | --- | --- | --- | --- | --- | --- | --- | --- | --- | --- |
| Endogenous BDNF of the control cells (ligand) | 44.1% | 31.9% | – | – | – | – | – | – | – | – | – | – | – | – | – | – | – | – | – | – |
| Human brain-derived neurotrophic factor (BDNF) (ligand) | – | – | 85% | 89.3% | 92% | 88.3% | 72.2% | 73.4% | 58.1% | 70% | 73.4% | 83.2% | 71.9% | 62.1% | 61.7% | 64.3% | > 10% | < 5% | < 5% | > 10% |
